Measurements published in patent publication US20230265151A1, “GIP/GLP1 CO-AGONIST COMPOUNDS” (priority 2020, published 2023).
*1 amine or outer side, *2 acyl side, *3 side chain or, on linkers, in order; H or OH if unused. Where no end group is shown, it is not given here. Side-chain parts run from the residue outwards. [ ]: non-standard residue; d: D form. The star is where a group is joined. Undecanoyl(11-OPh(4-COOH)) = O=C(O)c1ccc(OCCCCCCCCCCC(=O)*)cc1; Decanoyl(10-(4-HOOC-PhO)) = O=C(O)c1ccc(OCCCCCCCCCC(=O)*)cc1; αMePhe(2-F) = C[C@](N)(Cc1ccccc1F)C(=O)O; γGlu = O=C(O)[C@H](CCC(=O)[*:2])N[*:1]; C14 diacid = O=C(O)CCCCCCCCCCCCC(=O)*; αMeY = C[C@](N)(Cc1ccc(O)cc1)C(=O)O; αMeL = CC(C)C[C@](C)(N)C(=O)O; αMeS = C[C@](N)(CO)C(=O)O; Orn = NCCC[C@H](N)C(=O)O; AEEA = NCCOCCOCC(=O)O; Aib = CC(C)(N)C(=O)O

T1: human GIP receptor (human, UniProt P48546 22-466)
T1 sequence (looked up): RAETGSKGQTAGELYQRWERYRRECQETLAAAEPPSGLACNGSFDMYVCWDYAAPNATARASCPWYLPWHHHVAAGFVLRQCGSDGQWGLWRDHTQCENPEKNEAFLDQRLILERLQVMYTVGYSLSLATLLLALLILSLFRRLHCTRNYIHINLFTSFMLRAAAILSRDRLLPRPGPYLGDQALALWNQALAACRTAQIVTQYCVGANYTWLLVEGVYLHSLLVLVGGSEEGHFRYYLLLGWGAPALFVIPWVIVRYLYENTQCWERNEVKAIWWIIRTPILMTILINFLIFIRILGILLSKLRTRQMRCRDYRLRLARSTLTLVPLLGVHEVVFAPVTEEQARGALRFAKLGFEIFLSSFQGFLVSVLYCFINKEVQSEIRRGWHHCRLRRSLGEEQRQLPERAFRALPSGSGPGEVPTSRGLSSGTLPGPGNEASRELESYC

T2: human GIP receptor (human, UniProt P48546 22-466)
T2 sequence (looked up): T1 sequence (looked up)

T3: human GIP receptor (human, UniProt P48546 22-466)
T3 sequence (looked up): T1 sequence (looked up)

B1: Example 344 (peptide)
peptide: Y[Aib]EGT[αMePhe(2-F)]TSDV[Aib]I[αMeL]LD[Orn]IAQ[Aib]EFIK([AEEA-AEEA-AEEA-γGlu-C14 diacid])[αMeY]LIK([AEEA-AEEA-AEEA-γGlu-C14 diacid])GGPSSGAPPPS-NH2
modifications: N-terminus assumed
SMILES: CC[C@H](C)[C@H](NC(=O)[C@H](CCCN)NC(=O)[C@H](CC(=O)O)NC(=O)[C@H](CC(C)C)NC(=O)[C@](C)(CC(C)C)NC(=O)[C@@H](NC(=O)C(C)(C)NC(=O)[C@@H](NC(=O)[C@H](CC(=O)O)NC(=O)[C@H](CO)NC(=O)[C@@H](NC(=O)[C@](C)(Cc1ccccc1F)NC(=O)[C@@H](NC(=O)CNC(=O)[C@H](CCC(=O)O)NC(=O)C(C)(C)NC(=O)[C@@H](N)Cc1ccc(O)cc1)[C@@H](C)O)[C@@H](C)O)C(C)C)[C@@H](C)CC)C(=O)N[C@@H](C)C(=O)N[C@@H](CCC(N)=O)C(=O)NC(C)(C)C(=O)N[C@@H](CCC(=O)O)C(=O)N[C@@H](Cc1ccccc1)C(=O)N[C@H](C(=O)N[C@@H](CCCCNC(=O)COCCOCCNC(=O)COCCOCCNC(=O)COCCOCCNC(=O)CC[C@H](NC(=O)CCCCCCCCCCCCC(=O)O)C(=O)O)C(=O)N[C@@](C)(Cc1ccc(O)cc1)C(=O)N[C@@H](CC(C)C)C(=O)N[C@H](C(=O)N[C@@H](CCCCNC(=O)COCCOCCNC(=O)COCCOCCNC(=O)COCCOCCNC(=O)CC[C@H](NC(=O)CCCCCCCCCCCCC(=O)O)C(=O)O)C(=O)NCC(=O)NCC(=O)N1CCC[C@H]1C(=O)N[C@@H](CO)C(=O)N[C@@H](CO)C(=O)NCC(=O)N[C@@H](C)C(=O)N1CCC[C@H]1C(=O)N1CCC[C@H]1C(=O)N1CCC[C@H]1C(=O)N[C@@H](CO)C(N)=O)[C@@H](C)CC)[C@@H](C)CC
B2: Example 339 (peptide)
peptide: YXEGTXTSDXXIXLDXIAQXEFIKXLIKGGPSSGAPPPS
modifications: Y-Aib-EGT-αMeF(2F)-TSD-4Pal-Aib-I-αMeL-LD-Orn-IAQ-Aib-EFIK((2-[2-(2-Amino-ethoxy)-ethoxy]-acetyl)-(γ-Glu)-CO-(CH2)12-CO2H)-αMeY-LIK((2-[2-(2-Amino-ethoxy)-ethoxy]-acetyl)-(γ-Glu)-CO-(CH2)12-CO2H)GGPSSGAPPPS-NH2
B3: Example 91 (peptide)
peptide: Y[Aib]EGT[αMePhe(2-F)]TSDV[Aib]I[αMeL]LD[Orn]K([AEEA-AEEA-γGlu-C14 diacid])AQ[Aib]EFI[dE][αMeY]LIEGGK([AEEA-AEEA-γGlu-C14 diacid])SSGAPPPS-NH2
modifications: N-terminus assumed
SMILES: CC[C@H](C)[C@H](NC(=O)[C@H](CC(C)C)NC(=O)[C@](C)(Cc1ccc(O)cc1)NC(=O)[C@@H](CCC(=O)O)NC(=O)[C@@H](NC(=O)[C@H](Cc1ccccc1)NC(=O)[C@H](CCC(=O)O)NC(=O)C(C)(C)NC(=O)[C@H](CCC(N)=O)NC(=O)[C@H](C)NC(=O)[C@H](CCCCNC(=O)COCCOCCNC(=O)COCCOCCNC(=O)CC[C@H](NC(=O)CCCCCCCCCCCCC(=O)O)C(=O)O)NC(=O)[C@H](CCCN)NC(=O)[C@H](CC(=O)O)NC(=O)[C@H](CC(C)C)NC(=O)[C@](C)(CC(C)C)NC(=O)[C@@H](NC(=O)C(C)(C)NC(=O)[C@@H](NC(=O)[C@H](CC(=O)O)NC(=O)[C@H](CO)NC(=O)[C@@H](NC(=O)[C@](C)(Cc1ccccc1F)NC(=O)[C@@H](NC(=O)CNC(=O)[C@H](CCC(=O)O)NC(=O)C(C)(C)NC(=O)[C@@H](N)Cc1ccc(O)cc1)[C@@H](C)O)[C@@H](C)O)C(C)C)[C@@H](C)CC)[C@@H](C)CC)C(=O)N[C@@H](CCC(=O)O)C(=O)NCC(=O)NCC(=O)N[C@@H](CCCCNC(=O)COCCOCCNC(=O)COCCOCCNC(=O)CC[C@H](NC(=O)CCCCCCCCCCCCC(=O)O)C(=O)O)C(=O)N[C@@H](CO)C(=O)N[C@@H](CO)C(=O)NCC(=O)N[C@@H](C)C(=O)N1CCC[C@H]1C(=O)N1CCC[C@H]1C(=O)N1CCC[C@H]1C(=O)N[C@@H](CO)C(N)=O
B4: Example 305 (peptide)
peptide: Y[Aib]EGT[αMePhe(2-F)]TSDV[αMeS]I[αMeL]LD[Orn]IAQ[Aib]EFIK([AEEA-AEEA-γGlu-C14 diacid])[αMeY]LIK([AEEA-AEEA-γGlu-C14 diacid])GGPSSGAPPPS-NH2
modifications: N-terminus assumed
SMILES: CC[C@H](C)[C@H](NC(=O)[C@H](CCCN)NC(=O)[C@H](CC(=O)O)NC(=O)[C@H](CC(C)C)NC(=O)[C@](C)(CC(C)C)NC(=O)[C@@H](NC(=O)[C@](C)(CO)NC(=O)[C@@H](NC(=O)[C@H](CC(=O)O)NC(=O)[C@H](CO)NC(=O)[C@@H](NC(=O)[C@](C)(Cc1ccccc1F)NC(=O)[C@@H](NC(=O)CNC(=O)[C@H](CCC(=O)O)NC(=O)C(C)(C)NC(=O)[C@@H](N)Cc1ccc(O)cc1)[C@@H](C)O)[C@@H](C)O)C(C)C)[C@@H](C)CC)C(=O)N[C@@H](C)C(=O)N[C@@H](CCC(N)=O)C(=O)NC(C)(C)C(=O)N[C@@H](CCC(=O)O)C(=O)N[C@@H](Cc1ccccc1)C(=O)N[C@H](C(=O)N[C@@H](CCCCNC(=O)COCCOCCNC(=O)COCCOCCNC(=O)CC[C@H](NC(=O)CCCCCCCCCCCCC(=O)O)C(=O)O)C(=O)N[C@@](C)(Cc1ccc(O)cc1)C(=O)N[C@@H](CC(C)C)C(=O)N[C@H](C(=O)N[C@@H](CCCCNC(=O)COCCOCCNC(=O)COCCOCCNC(=O)CC[C@H](NC(=O)CCCCCCCCCCCCC(=O)O)C(=O)O)C(=O)NCC(=O)NCC(=O)N1CCC[C@H]1C(=O)N[C@@H](CO)C(=O)N[C@@H](CO)C(=O)NCC(=O)N[C@@H](C)C(=O)N1CCC[C@H]1C(=O)N1CCC[C@H]1C(=O)N1CCC[C@H]1C(=O)N[C@@H](CO)C(N)=O)[C@@H](C)CC)[C@@H](C)CC

Assays:
Assay in all cases: cell-based or functional assay
human GIP receptor [1] = molecular target: T1, human GIP receptor
human GLP-1 receptor [2] = molecular target: human GLP-1 receptor (human, UniProt P43220 24-463)
human GIP receptor [3] = molecular target: T2, human GIP receptor; remark: listed apart in the source
human GLP-1 receptor [4] = molecular target: human GLP-1 receptor (human, UniProt P43220 24-463); remark: listed apart in the source
human GIP receptor [5] = molecular target: T3, human GIP receptor; remark: listed apart in the source
human GLP-1 receptor [6] = molecular target: human GLP-1 receptor (human, UniProt P43220 24-463); remark: listed apart in the source

Row | Binder | cAMP EC50 (1.0% HSA) (human GIP receptor [1]) [nM] | cAMP EC50 (1.0% HSA) (human GLP-1 receptor [2]) [nM] | also measured
1 | B1 | 6.78 | 48.3 | cAMP Emax (1.0% HSA) (human GIP receptor [1]): 87.3%
2 | Y[Aib]EGT[αMePhe(2-F)]TSDV[Aib]I[αMeL]LD[Orn]IAQ[Aib]EFIK([AEEA-AEEA-γGlu-Undecanoyl(11-OPh(4-COOH))])[αMeY]LIK([AEEA-AEEA-γGlu-Undecanoyl(11-OPh(4-COOH))])GGPSSGAPPPS-NH2 [Example 313] | 21.9 | 98.8 | 
3 | Y[Aib]EGT[αMePhe(2-F)]TSDV[Aib]I[αMeL]LD[Orn]IAQ[Aib]EFIK([AEEA-AEEA-AEEA-γGlu-Decanoyl(10-(4-HOOC-PhO))])[αMeY]LIK([AEEA-AEEA-AEEA-γGlu-Decanoyl(10-(4-HOOC-PhO))])GGPSSGAPPPS-NH2 [Example 347] | 7.27 | 51.7 | cAMP Emax (1.0% HSA) (human GIP receptor [1]): 84.6%
4 | Y[Aib]EGT[αMePhe(2-F)]TSDV[αMeS]I[αMeL]LD[Orn]IAQ[Aib]EFIK([AEEA-AEEA-γGlu-Decanoyl(10-(4-HOOC-PhO))])[αMeY]LIK([AEEA-AEEA-γGlu-Decanoyl(10-(4-HOOC-PhO))])GGPSSGAPPPS-NH2 [Example 309] | 6.08 | 64.6 | 
5 | Y[Aib]EGT[αMePhe(2-F)]TSDV[Aib]I[αMeL]LD[Orn]IAQ[Aib]EFIK([AEEA-γGlu-Decanoyl(10-(4-HOOC-PhO))])[αMeY]LIK([AEEA-γGlu-Decanoyl(10-(4-HOOC-PhO))])GGPSSGAPPPS-NH2 [Example 381] |  |  | cAMP EC50 (1.0% HSA) (human GIP receptor [3]): 28 nM; cAMP EC50 (1.0% HSA) (human GLP-1 receptor [4]): 153 nM
6 | B2 | 4.35 | 68.2 | cAMP Emax (1.0% HSA) (human GLP-1 receptor [2]): 115%
7 | B3 |  |  | EC50, cAMP (human GIP receptor [5]): 0.0739 nM; Emax, cAMP (human GIP receptor [5]): 92.8%; EC50, cAMP (human GLP-1 receptor [6]): 0.153 nM; Emax, cAMP (human GLP-1 receptor [6]): 94%
8 | Y[Aib]EGT[αMePhe(2-F)]TSDV[Aib]I[αMeL]LD[Orn]IAQ[Aib]EFIK([AEEA-AEEA-γGlu-Decanoyl(10-(4-HOOC-PhO))])[αMeY]LIK([AEEA-AEEA-γGlu-Decanoyl(10-(4-HOOC-PhO))])GGPSSGAPPPS-NH2 [Example 308] | 10.5 | 67.3 | 
9 | B4 | 4.34 | 80.3 | cAMP Emax (1.0% HSA) (human GLP-1 receptor [2]): 125%
10 | Y[Aib]EGT[αMePhe(2-F)]TSDV[Aib]I[αMeL]LD[Orn]IAQ[Aib]EFIK([AEEA-AEEA-γGlu-C14 diacid])[αMeY]LIK([AEEA-AEEA-γGlu-C14 diacid])GGPSSGAPPPS-NH2 [Example 304] | 4.83 | 64.2 | 
